Target: T1, CD3 epsilon homodimer protein (UniProt P07766 23-126)
T1 construct: also called CD3 (CD3 epsilon)
Assay: SPR Biacore T200, CD3 epsilon homodimer on chip, antibody as analyte;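 further: homodimer amine-coupled to a CM4 sensor chip, run at 25 °C in HBS-EP+ buffer, with kinetic parameters derived in Biacore T200 Evaluation Software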

T1 sequence (P07766 23-126): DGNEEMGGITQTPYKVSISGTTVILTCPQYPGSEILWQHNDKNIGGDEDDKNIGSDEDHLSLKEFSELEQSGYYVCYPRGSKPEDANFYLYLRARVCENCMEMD

| KD ratio (KD of CE115HA000 / KD of altered form) | Binder |
| --- | --- |
| 0.89 | CE115HA000 H chain altered form K43Q (antibody, human IgG1, kappa, L234A L235A, N297A, name in Kabat numbering, one-arm antibody) heavy: QVQLVESGGGVVQPGRSLRLSCAASGFTFSNAWMHWVRQAPGQGLEWVAQIKAKSNNYATYYAESVKGRFTISRDDSKNSLYLQMNSLKTEDTAVYYCRYVHYGAYYGVDAWGQGTTVTVSSASTKGPSVFPLAPSSKSTSGGTAALGCLVKDYFPEPVTVSWNSGALTSGVHTFPAVLQSSGLYSLSSVVTVPSSSLGTQTYICNVNHKPSNTKVDKKVEPKSCDKTHTCPPCPAPEAAGGPSVFLFPPKPKDTLMISRTPEVTCVVVDVSHEDPEVKFNWYVDGVEVHNAKTKPREEQYASTYRVVSVLTVLHQDWLNGKEYKCKVSNKALPAPIEKTISKAKGQPREPQVYTLPPSRCELTKNQVSLSCAVKGFYPSDIAVEWESNGQPENNYKTTPPVLDSDGSFFLVSKLTVDKSRWQQGNVFSCSVMHEALHNHYTQKSLSLSPDYKDDDDK EPKSSDKTHTCPPCPAPELLGGPSVFLFPPKPKDTLMISRTPEVTCVVVDVSHEDPEVKFNWYVDGVEVHNAKTKPREEQYNSTYRVVSVLTVLHQDWLNGKEYKCKVSNKALPAPIEKTISKAKGQPREPQVCTLPPSRDELTKNQVSLWCLVKGFYPSDIAVEWESNGQPENNYKTTPPVLDSDGSFFLYSKLTVDKSRWQQGNVFSCSVMHEALHNRYTQKSLSLSP light: DIVMTQSPLSLPVTPGEPASISCRSSQSLVHSNRNTYLHWYQQKPGQAPRLLIYKVSNRFSGVPDRFSGSGSGTDFTLKISRVEAEDVGVYYCGQGTQVPYTFGQGTKLEIKRTVAAPSVFIFPPSDEQLKSGTASVVCLLNNFYPREAKVQWKVDNALQSGNSQESVTEQDSKDSTYSLSSTLTLSKADYEKHKVYACEVTHQGLSSPVTKSFNRGEC |
| 166 | CE115HA000 H chain altered form K52D (antibody, human IgG1, kappa, L234A L235A, N297A, name in Kabat numbering, one-arm antibody) heavy: QVQLVESGGGVVQPGRSLRLSCAASGFTFSNAWMHWVRQAPGKGLEWVAQIDAKSNNYATYYAESVKGRFTISRDDSKNSLYLQMNSLKTEDTAVYYCRYVHYGAYYGVDAWGQGTTVTVSSASTKGPSVFPLAPSSKSTSGGTAALGCLVKDYFPEPVTVSWNSGALTSGVHTFPAVLQSSGLYSLSSVVTVPSSSLGTQTYICNVNHKPSNTKVDKKVEPKSCDKTHTCPPCPAPEAAGGPSVFLFPPKPKDTLMISRTPEVTCVVVDVSHEDPEVKFNWYVDGVEVHNAKTKPREEQYASTYRVVSVLTVLHQDWLNGKEYKCKVSNKALPAPIEKTISKAKGQPREPQVYTLPPSRCELTKNQVSLSCAVKGFYPSDIAVEWESNGQPENNYKTTPPVLDSDGSFFLVSKLTVDKSRWQQGNVFSCSVMHEALHNHYTQKSLSLSPDYKDDDDK EPKSSDKTHTCPPCPAPELLGGPSVFLFPPKPKDTLMISRTPEVTCVVVDVSHEDPEVKFNWYVDGVEVHNAKTKPREEQYNSTYRVVSVLTVLHQDWLNGKEYKCKVSNKALPAPIEKTISKAKGQPREPQVCTLPPSRDELTKNQVSLWCLVKGFYPSDIAVEWESNGQPENNYKTTPPVLDSDGSFFLYSKLTVDKSRWQQGNVFSCSVMHEALHNRYTQKSLSLSP light: DIVMTQSPLSLPVTPGEPASISCRSSQSLVHSNRNTYLHWYQQKPGQAPRLLIYKVSNRFSGVPDRFSGSGSGTDFTLKISRVEAEDVGVYYCGQGTQVPYTFGQGTKLEIKRTVAAPSVFIFPPSDEQLKSGTASVVCLLNNFYPREAKVQWKVDNALQSGNSQESVTEQDSKDSTYSLSSTLTLSKADYEKHKVYACEVTHQGLSSPVTKSFNRGEC |

From patent US20240270846A1 (published 2024)
